Test results taken from PMC4252739 (Cell host & microbe, 2014).

Target: the molecule itself
Experiment: cryo-EM imaging

B1: MBP-MxB (full-length WT MxB tagged with maltose-binding protein) (natural protein, UniProt P20592 1-715, looked up)
chain: MSKAHKPWPYRRRSQFSSRKYLKKEMNSFQQQPPPFGTVPPQMMFPPNWQGAEKDAAFLAKDFNFLTLNNQPPPGNRSQPRAMGPENNLYSQYEQKVRPCIDLIDSLRALGVEQDLALPAIAVIGDQSSGKSSVLEALSGVALPRGSGIVTRCPLVLKLKKQPCEAWAGRISYRNTELELQDPGQVEKEIHKAQNVMAGNGRGISHELISLEITSPEVPDLTIIDLPGITRVAVDNQPRDIGLQIKALIKKYIQRQQTINLVVVPCNVDIATTEALSMAHEVDPEGDRTIGILTKPDLMDRGTEKSVMNVVRNLTYPLKKGYMIVKCRGQQEITNRLSLAEATKKEITFFQTHPYFRVLLEEGSATVPRLAERLTTELIMHIQKSLPLLEGQIRESHQKATEELRRCGADIPSQEADKMFFLIEKIKMFNQDIEKLVEGEEVVRENETRLYNKIREDFKNWVGILATNTQKVKNIIHEEVEKYEKQYRGKELLGFVNYKTFEIIVHQYIQQLVEPALSMLQKAMEIIQQAFINVAKKHFGEFFNLNQTVQSTIEDIKVKHTAKAENMIQLQFRMEQMVFCQDQIYSVVLKKVREEIFNPLGTPSQNMKLNSHFPSNESSVSSFTEIGIHLNAYFLETSKRLANQIPFIIQYFMLRENGDSLQKAMMQILQEKNRYSWLLQEQSETATKRRILKERIYRLTQARHALCQFSSKEIH
Q: Does B1 bind?
A: Result: binds
